Patent US20250277031A1 (BEIJING HANMI PHARMACEUTICAL, published 2025)

Experiments:
[1] = target: T1, rat CD47 on rat red blood cells (rat, UniProt P97829 19-303); experiment: flow cytometry on rat RBCs
T1 construct: whole, on cells; also called Rat RBCs
T1 sequence (looked up): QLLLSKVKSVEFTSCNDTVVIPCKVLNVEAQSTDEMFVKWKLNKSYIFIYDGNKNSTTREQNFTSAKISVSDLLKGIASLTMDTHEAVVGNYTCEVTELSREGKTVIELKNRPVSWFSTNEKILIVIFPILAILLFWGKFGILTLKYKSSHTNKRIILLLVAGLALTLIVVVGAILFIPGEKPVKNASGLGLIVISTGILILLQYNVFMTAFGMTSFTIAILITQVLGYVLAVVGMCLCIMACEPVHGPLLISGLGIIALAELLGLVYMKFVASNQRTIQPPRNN
Method: (§1) The species specificity of the chimeric anti-human CD47 monoclonal antibodies was determined by flow cytometer FACS. Normal human RBCs internally donated, cynomolgus RBCs, rat RBCs and mouse RBCs were collected, washed once with cold PBS (GIBCO, Catalog number 14190) containing 2% FBS (Hyclone, Catalog number SH30084.03). The RBCs (2×10⁶ cells per tube) were resuspended in 100 μL of cold PBS containing 2% FBS, and the serially diluted anti-human CD47 antibody samples and the control CC-90002 and the isotype control were added therein. Flow tubes were incubated on ice for 30 minutes. The cells were washed twice with PBS containing 2% FBS. Then the pellets were resuspended in 200 μL of cold PBS containing 2% FBS and FITC-labeled anti-human IgG antibody diluted 1:1000 (Beijing Zhongshan Golden Bridge, Catalog number ZF0306), incubated on ice for 30 minutes in the dark. The cells were washed twice with PBS containing 2% FBS, then resuspended in 500 μL of cold PBS. The cell suspension obtained was detected and analyzed on a flow cytometer (BD, FACS Calibur), and the fluorescence intensities of the RBCs were read.

[2] = target: T2, mouse CD47 on mouse red blood cells (mouse, UniProt Q61735 19-303); experiment: flow cytometry on mouse RBCs
T2 construct: whole, on cells; also called Mouse RBCs
T2 sequence (looked up): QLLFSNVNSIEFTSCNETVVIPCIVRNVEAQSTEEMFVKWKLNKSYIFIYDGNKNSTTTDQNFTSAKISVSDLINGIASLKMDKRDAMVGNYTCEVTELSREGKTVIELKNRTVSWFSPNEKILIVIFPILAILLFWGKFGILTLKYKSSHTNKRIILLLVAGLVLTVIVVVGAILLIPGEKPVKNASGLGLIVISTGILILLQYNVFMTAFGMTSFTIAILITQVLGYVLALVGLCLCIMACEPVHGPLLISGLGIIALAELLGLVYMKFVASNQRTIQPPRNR
Method: as §1

[3] = target: T3, recombinant human CD47 (human, UniProt Q08722 19-139); experiment: SPR, Biacore X100, antibody captured on Protein A chip, CD47 as analyte
T3 construct: also called antigen CD47
T3 sequence (Q08722 19-139 limits assumed): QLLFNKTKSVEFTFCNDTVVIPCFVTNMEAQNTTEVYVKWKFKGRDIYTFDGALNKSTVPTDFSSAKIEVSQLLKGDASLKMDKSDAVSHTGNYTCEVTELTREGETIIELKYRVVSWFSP
From the text: Biacore X100 instrument (purchased from GE) was used to detect the kinetic constant of the chimeric anti-human CD47 monoclonal antibodies binding to its antigen human CD47. This instrument utilizes optical surface plasmon resonance technology to detect the association and dissociation between the molecules coated on the biochip and the molecules to be tested. The main reagent used is Protein A chip (GE Healthcare, 29-1275-57). The experimental procedure is briefly described as follows: the chimeric anti-human CD47 antibodies were diluted in running buffer (1×HBS-EP+10 mM HEPES, 150 mM NaCl, 3 mM EDTA, 0.05% surfactant P20, pH7.4). During the capture-binding phase, the antibodies at a concentration of 2 μg/mL were injected for 60 seconds at a speed of 10 μL/min. During the binding phase, the antigen CD47 was diluted into multiple concentrations with running buffer, injected for 120 seconds at a speed of 30 μL/min respectively. During the dissociation phase, running buffer was injected for 600 seconds at a speed of 10 μL/min. The regeneration condition is 10 mM glycinate solution, pH1.5. Association kinetic constants and dissociation kinetic constants were analyzed and calculated by Biacore X100 evaluation software. The association kinetic constants, dissociation kinetic constants and dissociation equilibrium constants of the chimeric anti-human CD47 antibodies were shown in Table 7.

[4] = target: T4, B7-H1 (human, UniProt Q9NZQ7); experiment: ELISA, plate coated with 1 µg/mL recombinant human protein, anti-human IgG-HRP, OD450; antibody concentration not given
T4 construct: recombinant protein; also called PD-L1
T4 sequence (Q9NZQ7 19-238 limits assumed): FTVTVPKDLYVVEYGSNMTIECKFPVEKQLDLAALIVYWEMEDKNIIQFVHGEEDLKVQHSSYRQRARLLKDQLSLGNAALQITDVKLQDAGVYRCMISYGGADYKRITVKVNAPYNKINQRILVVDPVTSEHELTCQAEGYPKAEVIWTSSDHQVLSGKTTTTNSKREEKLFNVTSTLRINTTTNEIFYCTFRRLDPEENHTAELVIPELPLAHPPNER

[5] = target: T5, recombinant human CD47-Fc protein (ACROBiosystems, catalog number CD7-H52A5) (human, UniProt Q08722 19-139); experiment: blocking ELISA: plate coated with human CD47-Fc, 2 nM biotin-labelled SIRPα as the blocked ligand, falling OD450 curve; the sheet labels the half-maximal value EC50
T5 construct: bought; not shown: Fc part of a bought fusion protein, not described
T5 sequence (Q08722 19-139 limits assumed): as the sequence (Q08722 19-139 limits assumed) above
Method: A 96-well high-adsorption ELISA plate was coated with 1 μg/mL of the recombinant human CD47-Fc (ACROBiosystems) at 100 μL per well using carbonate buffer solution, pH=9.6 at 4° C. overnight. The plate was washed 5 times with PBST, and then blocked using PBST with 1% BSA, 300 μL/well, and incubated at 25° C. for 1 hour, and then washed 5 times with PBST. The anti-human CD47 antibody samples were added, 50 μL/well, the biotin-labelled SIRPα (ACROBiosystems) was added at a concentration of 4 nM (a final concentration of 2 nM), 50 μL/well, incubated at 25° C. for 90 minutes, and then washed 5 times with PBST. The Streptavidin-HRP (BD Pharmingen, catalog number 554066) diluted 1:1000 in PBST with 1% BSA was then added, 100 μL per well, and incubated at 25° C. for 1 hour. The plate was washed 5 times with PBST. The colorimetric substrate TMB was added, 100 μL/well, and developed at room temperature for 10 minutes. 1M H₂SO₄ was added, 100 μL/well, to stop the development. The absorbance at 450 nm was read on a microplate reader.

binding result [1]: no binding
binding result [2]: no binding
Kd [3]: 0.693 nM
koff [3]: 0.000823 s⁻¹
kon [3]: 1.19e+06 M⁻¹ s⁻¹
binding result [4]: no binding
IC50 [5]: 1.86 nM
B1: chimeric anti-human CD47 monoclonal antibody mAb-18-5 (antibody, human IgG1, kappa)
heavy: not shown
light: DIVMTQSQKFMSTSVGDRVSITCKASQNVRTSIAWYQQKSGQSPKTLIYLASNRHTGVPDRFTGSGSGTDFTLTISNVQSEDLADYFCLQHWNYPFTFGSGTKLEIKRTVAAPSVFIFPPSDEQLKSGTASVVCLLNNFYPREAKVQWKVDNALQSGNSQESVTEQDSKDSTYSLSSTLTLSKADYEKHKVYACEVTHQGLSSPVTKSFNRGEC
